Measured values as given in publication PMC3326387.
pKd: −log10 of the molar value.

Target: ecto-FLRT3 (immobilized for SPR) (UniProt Q8BGT1)
Assay: SPR

Chain of UniProt Q8BGT1 (Q8BGT1 29-528): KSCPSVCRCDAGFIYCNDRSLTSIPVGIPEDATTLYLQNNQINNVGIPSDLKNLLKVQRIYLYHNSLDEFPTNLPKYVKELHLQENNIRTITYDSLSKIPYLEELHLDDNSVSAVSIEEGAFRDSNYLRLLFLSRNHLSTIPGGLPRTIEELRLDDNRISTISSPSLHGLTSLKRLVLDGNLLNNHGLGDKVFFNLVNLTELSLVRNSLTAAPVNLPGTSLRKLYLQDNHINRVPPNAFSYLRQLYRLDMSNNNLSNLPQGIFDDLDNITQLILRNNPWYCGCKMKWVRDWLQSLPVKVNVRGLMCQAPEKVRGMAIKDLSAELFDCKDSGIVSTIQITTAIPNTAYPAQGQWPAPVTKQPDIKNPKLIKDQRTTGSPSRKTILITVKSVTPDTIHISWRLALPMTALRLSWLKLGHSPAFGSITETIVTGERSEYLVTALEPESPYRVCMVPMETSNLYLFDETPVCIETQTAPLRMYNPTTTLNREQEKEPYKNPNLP

## ecto-LPHN3-Fc (from UniProt Q80TS3 20-1537) (Fc fusion)
  pKd: 7.83
